Test results: publication PMC4259101

Biological target: MED14-containing head+middle (H+M+14) complex (human) (UniProt O60244)
Assay: co-IP

percent of input bound: < 75 % of input
Substance: RNA polymerase II (from UniProt P24928;P61218) (complex)
